Assay results published in article PMC7244016, “Knock-down of the TIM/TIPIN complex promotes apoptosis in melanoma cells” (Oncotarget, 2020).

Biological target: T1, Timeless (TIM), full length, FLAG-tagged (human, UniProt Q9UNS1 1-1208)
T1 construct: expressed from pcDNA4-Flag-Timeless; The plasmid is named Flag-Timeless; the results speak of a fused 3xFLAG-tag; also called flag-TIM; pcDNA4-Flag-Timeless
T1 sequence (looked up): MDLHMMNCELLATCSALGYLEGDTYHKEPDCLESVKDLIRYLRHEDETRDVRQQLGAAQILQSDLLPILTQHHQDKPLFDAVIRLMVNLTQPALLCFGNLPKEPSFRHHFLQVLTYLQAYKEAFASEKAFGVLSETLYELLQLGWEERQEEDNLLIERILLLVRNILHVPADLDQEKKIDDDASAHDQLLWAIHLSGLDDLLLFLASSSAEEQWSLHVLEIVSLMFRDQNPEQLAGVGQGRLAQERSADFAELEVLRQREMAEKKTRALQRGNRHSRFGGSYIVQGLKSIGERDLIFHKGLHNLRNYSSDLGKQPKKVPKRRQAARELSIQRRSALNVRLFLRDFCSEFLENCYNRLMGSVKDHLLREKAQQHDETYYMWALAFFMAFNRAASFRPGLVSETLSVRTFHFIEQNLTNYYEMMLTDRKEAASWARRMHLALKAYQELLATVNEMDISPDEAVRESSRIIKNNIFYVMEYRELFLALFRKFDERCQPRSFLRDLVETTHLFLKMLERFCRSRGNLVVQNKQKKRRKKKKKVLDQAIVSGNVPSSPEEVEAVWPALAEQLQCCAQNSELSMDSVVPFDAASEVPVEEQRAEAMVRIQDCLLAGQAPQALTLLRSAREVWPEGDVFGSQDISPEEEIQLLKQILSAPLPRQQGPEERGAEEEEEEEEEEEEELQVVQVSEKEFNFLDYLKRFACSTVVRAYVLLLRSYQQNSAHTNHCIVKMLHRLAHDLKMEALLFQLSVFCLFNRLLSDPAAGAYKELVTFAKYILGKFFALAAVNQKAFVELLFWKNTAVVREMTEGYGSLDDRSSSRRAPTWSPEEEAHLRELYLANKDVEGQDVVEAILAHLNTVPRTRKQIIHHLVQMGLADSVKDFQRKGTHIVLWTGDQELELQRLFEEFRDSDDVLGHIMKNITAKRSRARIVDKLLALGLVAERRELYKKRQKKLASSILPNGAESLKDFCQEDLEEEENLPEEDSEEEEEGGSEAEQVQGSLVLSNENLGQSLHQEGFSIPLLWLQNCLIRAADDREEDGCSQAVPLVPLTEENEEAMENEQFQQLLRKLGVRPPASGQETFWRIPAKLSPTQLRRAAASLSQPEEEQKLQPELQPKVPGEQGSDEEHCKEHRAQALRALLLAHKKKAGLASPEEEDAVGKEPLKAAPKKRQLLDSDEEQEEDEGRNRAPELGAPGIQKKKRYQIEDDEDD
Experiment: SEC; complex co-expressed in 293F cells and FLAG-purified; Superose 6 column in 50 mM HEPES pH 7.8, 150 mM NaCl, 0.5 mM TCEP; peak fractions checked by SDS-PAGE/Coomassie and immunoblot with TIM and TIPIN antibodies
Conditions: both partners purified

B1: TIM-interacting protein (TIPIN), full length, FLAG-tagged (natural protein, human, UniProt Q9BVW5 1-301, looked up)
chain: MLEPQENGVIDLPDYEHVEDETFPPFPPPASPERQDGEGTEPDEESGNGAPVRVPPKRTVKRNIPKLDAQRLISERGLPALRHVFDKAKFKGKGHEAEDLKMLIRHMEHWAHRLFPKLQFEDFIDRVEYLGSKKEVQTCLKRIRLDLPILHEDFVSNNDEVAENNEHDVTSTELDPFLTNLSESEMFASELSRSLTEEQQQRIERNKQLALERRQAKLLSNSQTLGNDMLMNTPRAHTVEEVNTDEDQKEESNGLNEDILDNPCNDAIANTLNEEETLLDQSFKNVQQQLDATSRNITEAR
notes: expressed from pcDNA3-Flag-Tipin; also called flag-TIPIN; pcDNA3-Flag-Tipin
stoichiometry N: 1
